Laboratory results: article PMC8514580, “Insight into the interaction between the RNA helicase CGH-1 and EDC-3 and its implications” (Scientific Reports, 2021)
“Also recorded” adds a separate entry of the source.

Legend:
[1] = target: CAR-1 184-214 (Caenorhabditis elegans) (UniProt Q9XW17); assay: ITC; settings: cited from earlier work
[2] = tested on: CGH-1_248–420; assay: GST-pulldown of CGH-1_248–420 WT; type: binding, C. elegans; settings: PBS, ~100 μg GST protein, ~50 μg CGH-1, 2 h, 12% SDS-PAGE
Method: (§1) The cDNA encoding a fragment of C. elegans EDC-3 (residues 230–566) plus a C-terminal His6 tag was synthesized by Sangon Biotech (Shanghai, China) Co., Ltd. The DNA fragment was then cloned into a pGEX-4T-1 expression vector using restriction enzymes BamHI and XhoI, and finally confirmed by DNA sequencing.
(§2) To test if GST-tagged EDC-3 can pulldown CGH-1 protein, about 100 μg protein, GST alone or GST-EDC-3_230–566, was incubated with GST resin (GE Healthcare) in PBS for 1 h. The resin was then washed three times with the same buffer. Subsequently, the resin was incubated with ~ 50 μg recombinant CGH-1_248–420 protein or its 4A mutant in the same buffer for 2 h. The resin was then washed five times using the same buffer. The captured proteins in resin were finally heated and analyzed using 12% SDS-PAGE.

[3] = tested on: 4A mutant of CGH-1_248–420; assay: GST-pulldown of CGH-1_248–420 4A mutant; type: binding, C. elegans; settings: PBS, ~100 μg GST protein, ~50 μg CGH-1 4A, 2 h, 12% SDS-PAGE
Method: as §1, §2

[4] = tested on: human HA-tagged DDX6; settings: Co-immunoprecipitation, YFP-tagged PATL1 mutants; cited from earlier work
[5] = target: CGH-1_248-420^F355A (Caenorhabditis elegans, UniProt Q95YF3, F355A); set-up: the cDNA fragments encoding CGH-1 RecA2 (residues 248–420); made in house; host or cells: E. coli Gold (DE3); settings: ITC, CGH-1 F355A vs WT; cited from earlier work
CGH-1_248-420^F355A, sequence (Q95YF3 248-420 F355A): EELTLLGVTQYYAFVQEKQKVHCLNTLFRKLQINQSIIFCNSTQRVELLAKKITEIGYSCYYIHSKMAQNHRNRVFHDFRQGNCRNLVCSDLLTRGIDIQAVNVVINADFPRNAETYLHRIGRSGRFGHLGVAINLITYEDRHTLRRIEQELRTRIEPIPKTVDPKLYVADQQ
Excerpt: We recently identified a highly conserved FDF (Phe-Asp-Phe) motif between beta-strand 12 and alpha-helix 13 in CGH-1 RecA2 domain but the function is currently unclear (Fig. 1B)[17]. Mechanistically, Phe355 in CGH-1 may mediate hydrophobic interaction with Thr266 in the TFG motif of CAR-1 and a mutation of Phe355 to Ala (F355A) in CGH-1 decreased the binding affinity by a factor of approximate 5 as measured by ITC assay. Since PATR-1N-terminus has also a TFG motif, we hypothesize that PATR-1 may also interact with CGH-1 via similar binding mechanism (Supplementary Fig. S3B and C). Striking ...

## CGH-1 248-420 (from UniProt Q95YF3)
[1]
  Kd: 43 µM

B1: GST-EDC-3_230–566: GST-tagged fragment of C. elegans EDC-3 (residues 230–566) plus a C-terminal His6 tag (protein)
chain: RNKNDLADPIDFDLDSDFDFAENLKLFEKDENDDQYYETVEKFKCSQNFAHYENIIDDENRVTSWTNLKARSELVKTGTTPQTSEKNNFRVTAVSFEKSIIGDPIPAISLNEKKEFLNECRVSLGEAVYDTIVADRIFQWVSEVQNSYGDAHGTVVLLASSANSVRSIRRLLTHFDKRRYNCHLFGKYPGEIFDHVNVVTDVKMLPREVPIICILSPVVNDDVECWLRAQSNGASSHYVCIENVPSVLEPSRCHLLQFGCATNGLRHAERKVQTINRGGITFEHLCQGKMHEETSSILVDSAIADLGSPSNWFDNTSSKFISTAFSTTFLVRLSQSN
modifications: left off: GST, end not stated, kept | His6, C-terminal, state not stated
notes: GST-tagged fragment of C. elegans EDC-3 (residues 230–566) plus a C-terminal His6 tag
[2]
  interaction with CGH-1_248–420: can interact with CGH-1_248–420; also recorded: binds to CGH-1 RecA2 domain
[3]
  amount of CGH-1 4A bound compared with wild-type: less amount

B2: YFP-tagged PATL1 W46D: substitution of Trp46 to Asp in the YFP-tagged PATL1 (protein, UniProt Q86TB9 1-770, looked up, variant W46D)
Protein PAT1 homolog 1: MFRYESLEDCPLDEDEDAFQGLGEEDEEIDQFNDDTFGSGAVDDDDQEAHERLAELEEKLPVAVNEQTGNGERDEMDLLGDHEENLAERLSKMVIENELEDPAIMRAVQTRPVLQPQPGSLNSSIWDGSEVLRRIRGPLLAQEMPTVSVLEYALPQRPPQGPEDDRDLSERALPRRSTSPIIGSPPVRAVPIGTPPKQMAVPSFTQQILCPKPVHVRPPMPPRYPAPYGERMSPNQLCSVPNSSLLGHPFPPSVPPVLSPLQRAQLLGGAQLQPGRMSPSQFARVPGFVGSPLAAMNPKLLQGRVGQMLPPAPGFRAFFSAPPSATPPPQQHPPGPGPHLQNLRSQAPMFRPDTTHLHPQHRRLLHQRQQQNRSQHRNLNGAGDRGSHRSSHQDHLRKDPYANLMLQREKDWVSKIQMMQLQSTDPYLDDFYYQNYFEKLEKLSAAEEIQGDGPKKERTKLITPQVAKLEHAYKPVQFEGSLGKLTVSSVNNPRKMIDAVVTSRSEDDETKEKQVRDKRRKTLVIIEKTYSLLLDVEDYERRYLLSLEEERPALMDDRKHKICSMYDNLRGKLPGQERPSDDHFVQIMCIRKGKRMVARILPFLSTEQAADILMTTARNLPFLIKKDAQDEVLPCLLSPFSLLLYHLPSVSITSLLRQLMNLPQSAATPALSNPHLTAVLQNKFGLSLLLILLSRGEDLQSSDPATESTQNNQWTEVMFMATRELLRIPQAALAKPISIPTNLVSLFSRYVDRQKLNLLETKLQLVQGIR
modifications: YFP tag
[4]
  interaction with DDX6: impaired the interaction

B3: CAR-1: CAR-1, construct of ref 17; TFG motif interacts with Phe355 of CGH-1 (protein, UniProt Q9XW17 1-340, looked up)
Protein LSM14 homolog car-1: MSNQTPYIGSKISLISKLDIRYEGILYTVDTNDSTIALAKVRSFGTEKRPTANPVAARDDVYEYIIFKASDIKDLIVCDTPKMANIGGGLPYDPAIISVSSRSAPASDGAPAASAGSSRAGTPSRNSPLGQIIQNQRPGRGGYQQNFQANRGYNNYRGGFAGGYNNQRGHNNYGVPRVNHREKLKFESDFDFEKANEKFQEVLVDNLEKLNIEDKAEPEVEEKKDAAFYDKKTSFFDNISCESLEKAEGKTGRPDWKKERETNQETFGHNAVRSLNYRRGFGGRGRGGNRGYGGYNNGYQHQHQHRGGYNGGYRQNNGGYRRGGYAPRDNQGNTAAAAEQ
[5]
  decrease of binding affinity, factor vs WT: ~5
